Experimental data: publication PMC7313238 (Journal of the American Society for Mass Spectrometry, 2020)

Biological target: the molecule itself
Assay: SEC + native MS

B1: BX1 from Zea mays (zmBX1), wild type (enzyme)
chain: SRPVSDTMAALMAKGKTAFIPYITAGDPDLATTAEALRLLDGCGADVIELGVPCSDPYIDGPIIQASVARALASGTTMDAVLEMLREVTPELSCPVVLLSYYKPIMSRSLAEMKEAGVHGLIVPDLPYVAAHSLWSEAKNNNLELVLLTTPAIPEDRMKEITKASEGFVYLVSVNGVTGPRANVNPRVESLIQEVKKVTNKPVAVGFGISKPEHVKQIAQWGADGVIIGSAMVRQLGEAASPKQGLRRLEEYARGMKNALP
stoichiometry N: 2
